Experiments:
[1] = molecular target: T1, SpaR^STREP (Salmonella enterica serovar Typhimurium, UniProt P40701 1-263); test: native MS; settings: both partners purified
T1 construct: also called SpaR^STREP of the SpaPR^STREP complex
T1 sequence: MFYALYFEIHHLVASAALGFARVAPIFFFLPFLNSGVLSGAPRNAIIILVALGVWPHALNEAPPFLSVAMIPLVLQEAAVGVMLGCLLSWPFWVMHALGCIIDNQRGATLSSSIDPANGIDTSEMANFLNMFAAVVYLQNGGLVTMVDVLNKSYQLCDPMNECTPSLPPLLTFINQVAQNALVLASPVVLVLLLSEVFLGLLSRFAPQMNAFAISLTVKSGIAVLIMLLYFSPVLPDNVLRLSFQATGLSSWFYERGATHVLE

[2] = molecular target: the molecule itself; test: native MS

B1: SpaP (untagged, co-expressed in E. coli) (natural protein)
chain: MGNDISLIALLAFSTLLPFIIASGTCFVKFSIVFVMVRNALGLQQIPSNMTLNGVALLLSMFVMWPIMHDAYVYFEDEDVTFNDISSLSKHVDEGLDGYRDYLIKYSDRELVQFFENAQLKRQYGEETETVKRDKDEIEKPSIFALLPAYALSEIKSAFKIGFYLYLPFVVVDLVVSSVLLALGMMMMSPVTISTPIKLVLFVALDGWTLLSKGLILQYMDIAT
notes: also called SpaP of the SpaPR complex; SpaP5R1
B1 was tested, and the “stoichiometry N” value [1] was 5 SpaP per SpaR^STREP and the “stoichiometry N” value [2] was 5.

Reference: paper PMC5158082 (PLoS Pathogens, 2016)
